In US10759835B2, “Monomeric streptavidin mutants, methods of using the same and processes of manufacturing proteins” (The Research Foundation for The State University of New York, priority 2016, dated 2020):
“And” between values parts separate entries of the source, which are not always exact repeats. Equal entries are not always repeated. Where two headings read alike, the source gives them in different places.

Tests used:
[1] = biotin; monomer at low pH and protein concentrations; cited from earlier work
[2] = Fluorescence polarization spectroscopy, equilibrium affinity Kd; details: biotin-fluorescein, overnight incubation at room temperature, PBS 0.1 mg/ml BSA; read-out: equilibrium binding constant Kd
Procedure: FIG. 4. In vitro characterization of purified mSA mutants. a) Stability of mSA-RF and mSA-RWT in PBS was measured by circular dichroism spectroscopy with or without biotin. b) Fluorescence polarization spectroscopy was used to measure the dissociation rate of biotin-fluorescein. The dissociation rate, koff, was computed by fitting normalized fluorescence polarization data, or bound fraction f, to an exponentially decaying function, i.e. ƒ=e^−k^off^*t The measurements were taken at 37° C. c) The equilibrium affinity of binding Kd between mSA-RF and biotin-fluorescein was measured by FP. d) mSA-S25H and mSA-RF were analyzed by size exclusion chromatography to estimate their molecular weights in solution. […]
The binding of biotinylated fluorescein (bf, AnaSpec) was measured using a microplate reader (SpectraMax® i3 Microplate reader from Molecular Devices) in flat bottom 96 well plates (Sterilin Ltd). […] After overnight incubation at room temperature, the fluorescence polarization values were measured and fit to the quadratic binding equation (Hsu and Park, 2010, J Mol Graph Model, 29, 295-308). […] To observe dissociation of bf, excess free biotin was added to a final concentration of 100 μM and recording of fluorescence was started immediately. The intensity of polarized fluorescence was measured at various time points and normalized with respect to the value at t=0 min. […]

[3] = tested on: HEK293 cells displaying biotinylated AP-CFP; assay: Fluorescent labeling of cell surface biotinylated receptor, confocal microscopy; assay type: cell-based
Description: FIG. 5. Fluorescent labeling of HEK293 cells displaying biotinylated receptor. a) HEK293 cells displaying biotinylated AP-CFP were labeled with Alexa488-conjugated mSA-RWT and imaged by fluorescence microscopy. Fluorescence was filtered for (i) CFP and (ii) Alexa488 and the same field of vision was imaged multiple times at regular intervals to measure the stability of labeling. iii. DIC. mSA-RWT binds only CFP positive cells, indicating high specificity of interaction. b-c) HEK293 displaying unrelated protein fused to CFP b) or untransfected HEK293 c) were treated with purified BirA and then labeled with fluorescent mSA-RWT as in part (a) (i)-(iii) the same as before. d) The captured fluorescence images of mSA-RWT—Alexa488 labeled cells (in jpg format) were loaded into MatLab and the amount of CFP and Alexa488 fluorescence was quantified by summing over pixel values. The fluorescence intensity was normalized with respect to the value at t=0. e) Cells labeled with mSA-RF—EGFP were similarly imaged and analyzed to determine the time dependent loss of mSA labeling.
Adherent HEK293 cells were seeded in a 24 well plate (Becton Dickinson) and grown in DMEM supplemented with 10% FBS and antibiotic/antimycotic (Invitrogen). At 50% confluency, the cells were transfected with a plasmid containing pDisplay-AP-CFP-TM. After 2 days the wells were supplemented with 100 nM purified BirA, 5 mM ATP, and 0.3 mM biotin and the biotinylation reaction was carried out overnight. The following morning, the cells were detached from the wells using EDTA Solution (Versene from Life Technologies), washed with PBS containing 0.1% w/v BSA (PBSF), and fixed in 4% paraformaldehyde solution. Prior to microscopy, cells were labeled with 1 μM mSA-RWT—Alexa488 or 1 μM mSA-RF—EGFP in PBSF for 30 minutes. Excess protein was washed away and cells were switched to PBSF with 0.9 mM biotin. Each sample was mounted on slides and imaged using confocal microscopy. The same field of view was imaged every 10 min for 60 min to quantify fluorescence loss as a function of time. The captured images were analyzed with microscope software (ZEN from Zeiss, and MatLab® from MathWorks).
We tested the use of mSA-RWT or mSA-RF in cell imaging, in which biotinylated proteins on the cell surface were labeled with Alexa488 conjugated mSA-RWT or mSA-RF fused to EGFP, and imaged by fluorescence confocal microscopy. Cell imaging is an important test of whether engineered mutants can specifically interact with biotinylated ligands in a heterogeneous environment, in which other potentially competing interactions can interfere with desired detection. […]
To evaluate the stability of labeling, we imaged the labeled cells repeatedly over 1 hr and quantified the fluorescence intensity of Alexa488 or GFP at regular intervals. […]

[4] = Fluorescence polarization spectroscopy, biotin dissociation rate (koff); assay type: binding; details: 37° C.
Procedure: (§1) FIG. 4. In vitro characterization of purified mSA mutants. a) Stability of mSA-RF and mSA-RWT in PBS was measured by circular dichroism spectroscopy with or without biotin. b) Fluorescence polarization spectroscopy was used to measure the dissociation rate of biotin-fluorescein. The dissociation rate, koff, was computed by fitting normalized fluorescence polarization data, or bound fraction f, to an exponentially decaying function, i.e. ƒ=e^−k^off^*t The measurements were taken at 37° C. c) The equilibrium affinity of binding Kd between mSA-RF and biotin-fluorescein was measured by FP. d) mSA-S25H and mSA-RF were analyzed by size exclusion chromatography to estimate their molecular weights in solution. Each mutant eluted with a retention time that was consistent with monomeric streptavidin. The molecular weight standards (arrows) correspond to 66.0, 29.0, 12.4 and 6.5 kDa from left to right.
The binding of biotinylated fluorescein (bf, AnaSpec) was measured using a microplate reader (SpectraMax® i3 Microplate reader from Molecular Devices) in flat bottom 96 well plates (Sterilin Ltd). To measure Kd, 100 nM bf was first mixed with titrating amounts of mSA in PBS containing 0.1 mg/ml bovine serum albumin (BSA). After overnight incubation at room temperature, the fluorescence polarization values were measured and fit to the quadratic binding equation (Hsu and Park, 2010, J Mol Graph Model, 29, 295-308). To measure the off rate (koff), 10 nM bf was first mixed with 50 nM mSA and incubated for 2 hr to form a biotin-mSA complex. To observe dissociation of bf, excess free biotin was added to a final concentration of 100 μM and recording of fluorescence was started immediately. The intensity of polarized fluorescence was measured at various time points and normalized with respect to the value at t=0 min. The intensities were fit to an exponentially decaying function e^−k^off^*t to compute koff. The dissociation half-life t1/2=0.693/koff.
We measured the biotin dissociation rate of various mSA mutants by fluorescence polarization spectroscopy. Table 2 presents the biotin dissociation rate (koff) of various mutants measured by fluorescence polarization spectroscopy. The S25R mutation lowered koff by nearly 21 fold compared to the original mSA and 3.3 fold compared to the S25H mutant (Table 2, FIG. 4b).

[5] = Circular dichroism spectroscopy, thermal denaturation; assay type: physicochemical
Procedure: as §1
FIG. 8. Circular dichroism spectra of mSA-RF after low pH treatment to release bound biotin is shown in a). mSA-RF was first buffer exchanged to 100 mM glycine (pH 2.3) and then back to PBS (pH 7.5) before CD analysis. The spectra obtained at temperatures 30, 40, 50, 60, 70, and 80° C. were overlaid. The spectra at lower temperatures were colored darker than the spectra at higher temperatures, i.e. the darkest for 30° C. and the lightest for 80° C. The CD values at 235 nm (from FIG. 8a) were used to compute the unfolded fraction shown in b).
FIG. 9. To evaluate the importance of the biotin additive, mSA was induced without biotin in the medium as shown in a). The culture medium was then pH adjusted to 7.5 and poured over Ni-NTA resin, which immediately turned brown (not shown). 1. Culture medium, 2. Flow through after Ni-NTA, 3. Wash, 4. Elution. The amount of purified mSA was approximately 20% of the expressed protein. (*) mSA. Thermal denaturation of mSA-RF purified with (circle) and without (square) biotin in the medium is shown in b).
Purified mSA was diluted to 15 μM in PBS and loaded in a quartz cuvette with 1.0 mm path length. […]

B1: Brad2: bradavidin 2, streptavidin homolog, SEQ ID NO: 21 (protein, listed as Bradyrhizobium japonicum)
chain: QGLPAPSYWKNERGSELLIWSANSGTIQGTFTNHAQGFACQGIPYPAAGSVSPTGLYFVVTFAQCNSFTRWVGTIKGSQMPTSWTLFYVDNKGKPSRLKGGDIFTRVW
- Kd [1]: < 0.1 nM

B2: mSA-RF: monomeric streptavidin mutant SEQ ID NO: 3, S25R and T48F (protein)
chain: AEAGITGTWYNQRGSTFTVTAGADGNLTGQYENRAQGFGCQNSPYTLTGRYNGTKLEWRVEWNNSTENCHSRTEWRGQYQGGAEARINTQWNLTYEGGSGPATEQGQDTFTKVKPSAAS
modifications: Modified streptavidin
- Kd [2]: 1.3 nM
- Alexa488/GFP fluorescence of labeled cells over time ([3]; after 1 hr, 900 μM biotin in the labeling solution): remained high
- labeling of cells displaying biotinylated AP-CFP ([3]; fixed HEK293 cells, 1 μM for 30 minutes): Only CFP positive cells were labeled selectively
- t1/2 ([4]; dissociation half-life t1/2=0.693/koff, biotin-fluorescein): 6.7 h and 6.7 ± 0.3 h
- Koff(×10^−3 min^−1) ([4]; dissociation of biotin-fluorescein, excess free biotin 100 μM): 1.73 ± 0.79 ×10^−3 min^−1
- denaturation temperature ([5]; after low pH treatment (100 mM glycine pH 2.3) and exchange back to PBS pH 7.5): 60 °C
- thermal unfolding behaviour ([5]; protein purified with biotin in the medium): clear two state unfolding transition
- thermal unfolding behaviour ([5]; protein purified without biotin in the medium): does not show such transition
